Reference: patent US20200071417A1 (MARENGO THERAPEUTICS, published 2020)

Assays:
mouse CCR2 = target: T1, mouse CCR2 (mouse, UniProt P51683 1-373); experiment: flow cytometry on transiently transfected ExpiCHO cells expressing mouse CCR2 only
T1 construct: whole, on cells; the mouse protein was used in the assays; also called mCCR2
Protocol: (§1) ExpiCHO cells were transiently transfected with mouse CCR2, mouse CSF1R, or both mouse CCR2 and CSF1R, according to the manufacturer's instructions. In brief, the transfections were performed with ExpiCHO cells at a cell density of 5.6-6.3×10⁶ cells/mL and at least 95% viability. For each transfection, 25 μg of DNA was diluted with 1 mL of OptiPro SFM (Gibco 12309050) and filtered using spin-X centrifuge tube filters (Corning 8160). A solution of 920 μL of OptiPro and 80 μL of expifectamine was added to the filtered DNA, incubated for 1 minute at room temperature, and then added to the cells. On day 1 of the transfection, the cells were enhanced using 150 μL of ExpiCHO enhancer.
(§2) On day 2 of the transfection, the cells were washed with PBS containing 1% BSA (Sigma) and used to set 96-well V-bottom plates (Biotix AP-0350-9CVS) with 100,000 cells/well. UniTI-01 was added to the cells in serial dilutions and incubated for 1 hour at 4° C. The plates were washed twice with PBS containing 1% BSA. […] The plates were read on a CytoFLEX S (Beckman Coulter). Data were calculated as the median fluorescence intensity of the PE-positive population vs. the median fluorescence intensity of the PE-negative population. The data was normalized for the percent of total median fluorescence intensity. […]

mouse CSF1R = target: T2, mouse CSF1R (mouse, UniProt P09581 20-977); experiment: flow cytometry on transiently transfected ExpiCHO cells expressing mouse CSF1R only
T2 construct: whole, on cells; the mouse protein was used in the assays; also called mCSF1R
T2 sequence (looked up): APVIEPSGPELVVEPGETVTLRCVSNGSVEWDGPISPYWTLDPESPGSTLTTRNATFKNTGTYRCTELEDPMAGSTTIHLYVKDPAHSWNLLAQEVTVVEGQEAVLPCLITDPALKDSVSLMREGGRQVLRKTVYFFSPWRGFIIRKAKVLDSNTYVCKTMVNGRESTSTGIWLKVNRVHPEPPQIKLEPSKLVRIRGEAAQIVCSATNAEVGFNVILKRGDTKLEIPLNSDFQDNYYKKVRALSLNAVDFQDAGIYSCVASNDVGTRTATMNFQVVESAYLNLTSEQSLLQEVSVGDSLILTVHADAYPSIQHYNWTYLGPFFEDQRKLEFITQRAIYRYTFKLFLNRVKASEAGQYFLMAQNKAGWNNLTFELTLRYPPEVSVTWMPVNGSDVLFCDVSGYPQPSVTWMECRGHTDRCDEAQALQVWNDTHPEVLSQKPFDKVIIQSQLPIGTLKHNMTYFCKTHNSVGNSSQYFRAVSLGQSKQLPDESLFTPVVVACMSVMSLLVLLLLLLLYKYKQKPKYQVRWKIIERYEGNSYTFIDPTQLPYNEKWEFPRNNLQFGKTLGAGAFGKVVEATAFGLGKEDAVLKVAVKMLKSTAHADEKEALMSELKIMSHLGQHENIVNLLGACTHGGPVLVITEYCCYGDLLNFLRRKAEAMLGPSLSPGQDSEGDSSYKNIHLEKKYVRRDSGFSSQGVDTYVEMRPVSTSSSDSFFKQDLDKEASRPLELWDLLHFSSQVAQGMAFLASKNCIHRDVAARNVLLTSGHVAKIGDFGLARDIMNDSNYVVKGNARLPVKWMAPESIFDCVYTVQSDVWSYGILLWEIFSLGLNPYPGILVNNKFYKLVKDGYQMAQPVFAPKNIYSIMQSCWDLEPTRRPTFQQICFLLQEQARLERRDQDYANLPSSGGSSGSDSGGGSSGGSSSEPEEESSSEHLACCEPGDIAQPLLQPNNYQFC
Protocol: as §1, §2

[1] = target: T3, mouse CCR2 and mouse CSF1R co-expressed on the same ExpiCHO cells (mouse, UniProt P51683 1-373; P09581 20-977); experiment: flow cytometry on transiently transfected ExpiCHO cells expressing both mouse CCR2 and mouse CSF1R
T3 construct: whole, on cells; also called both mCCR2 and mCSF1R; CCR2 and CSF1R double positive cells
Protocol: as §1, §2

T3 sequence (P51683 whole entry, one chain of several): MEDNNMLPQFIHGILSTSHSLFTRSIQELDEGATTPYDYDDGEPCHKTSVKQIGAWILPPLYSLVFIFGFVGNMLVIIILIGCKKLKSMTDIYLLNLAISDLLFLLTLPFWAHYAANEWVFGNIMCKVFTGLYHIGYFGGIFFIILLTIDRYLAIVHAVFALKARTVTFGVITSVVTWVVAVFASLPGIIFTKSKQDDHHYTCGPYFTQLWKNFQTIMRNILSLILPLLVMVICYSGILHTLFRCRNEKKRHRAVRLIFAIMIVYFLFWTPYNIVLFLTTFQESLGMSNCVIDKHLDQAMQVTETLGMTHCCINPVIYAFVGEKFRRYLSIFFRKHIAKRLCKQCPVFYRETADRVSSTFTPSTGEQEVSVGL
T1 sequence (P51683 whole entry): as the sequence (P51683 whole entry, one chain of several) above

EC50 (mouse CCR2): 15 nM | EC50 (mouse CSF1R): 1 nM | EC50 [1]: 0.4 nM
B1: UniTI-01 (multispecific molecule #1), anti-CCR2/anti-CSF1R bispecific antibody (bispecific antibody)
heavy 1: QVQLQESGPGLVQPSQTLSLTCTVSGFSLTDFSVHWVRQPPGKGLEWMGRIRSEGNTDYNSALKSRLSISRDTSKSQVFLKMNSLQTEDTAIYFCTRGDILGFGYWGQGVMVTVSSAQTTAPSVYPLAPGCGDTTSSTVTLGCLVKGYFPEPVTVTWNSGALSSDVHTFPAVLQSGLYTLTSSVTSSTWPSQTVTCNVAHPASSTKVDKKVERRTIKPCPPCKCPAPNLLGGPSVFIFPPKIKDVLMISLSPIVTCVVVDVSEDDPDVQISWFVNNVEVHTAQTQTHREDYNSTLRVVSALPIQHQDWMSGKEFKCKVNNKDLPAPIERTISKPKGSVRAPQVYVLPPCEEEMTKKQVTLWCMVTDFMPEDIYVEWTNNGKTELNYKNTEPVLDSDGSYFMYSKLRVEKKNWVERNSYSCSVVHEGLHNHHTTKSFSRTPGK
light 1: DIVMTQSPLSVSVTPGESASISCRSSKSLLHFKGITFVYWYLQKPGQSPQLLIFRMSSLASGVPDRFSGSGSETDFTLKISRVEAEDVGTYYCGQLLENPYTFGAGTKLELKRADAAPTVSIFPPSMEQLTSGGATVVCFVNNFYPRDISVKWKIDGSEQRDGVLDSVTDQDSKDSTYSMSSTLSLTKVEYERHNLYTCEVVHKTSSSPVVKSFNRNEC
heavy 2: QVQLQQSGAELVKPGSSVKISCKASGYTFTSNFMHWIKQQPGNGLEWIGWIYPGDGDTEYNQKFNGKATLTADKSSSTAYMQLSSLTSEDSAVYFCAVNYGGYVLDAWGQGASVTVSSAETTAPSVYPLAPGTALKSNSMVTLGCLVKGYFPEPVTVTWNSGALSSGVHTFPAVLQSGLYTLTSSVTVPSSTWSSQAVTCNVAHPASSTKVDKKIVPRECNTIKPCPPCKCPAPNLLGGPSVFIFPPKIKDVLMISLSPIVTCVVVDVSEDDPDVQISWFVNNVEVHTAQTQTHREDYNSTLRVVSALPIQHQDWMSGKEFKCKVNNKDLPAPIERTISKPKGSVRAPQVCVLPPPEEEMTKKQVTLSCAVTDFMPEDIYVEWTNNGKTELNYKNTEPVLDSDGSYFMVSKLRVEKKNWVERNSYSCSVVHEGLHNHHTTKSFSRTPGK
light 2: EIVLTQSPTTMAASPGEKVTITCRASSSTNYMSWYQQKSGASPKPWIYETSKLASGVPDRFSGSGSGTSYSFTISSMETEDAATYYCHQWSSTPLTFGSGTKLEIKRADAAPTVSIFPPSMEQLTSGGATVVCFVNNFYPRDISVKWKIDGSEQRDGVLDSVTDQDSKDSTYSMSSTLSLTKVEYERHNLYTCEVVHKTSSSPVVKSFNRNEC
notes: Knob-in-hole heterodimer with one anti-CCR2 arm and one anti-mCSF1R arm
